Experimental findings from paper PMC4385862 are described below.

The conditions of data set [1]: phosphorylation at Y342.
The target of the next data set is β1 integrin (UniProt P05556). As to the kind of experiment: co-immunoprecipitation and Western blot. The note with it: reference: wild-type GFP-K18; sites S52. (In western blotting, separated proteins are transferred to a membrane and probed.)

Take ClC-3: Y342F: the other entry in data set [1] is listed as “decreases”.

Consider “keratin 18 (K18) (from UniProt P05783) S52A GFP-K18”, for which the “binding against the reference” value in the data set with β1 integrin was “lost”.
